The record followed here is FireProtDB (doi:10.1021/tx3002115).

To fix the notation:
B1: DNA polymerase IV, Q97W02 (parent)
chain: MIVLFVDFDYFYAQVEEVLNPSLKGKPVVVCVFSGRFEDSGAVATANYEARKFGVKAGIPIVEAKKILPNAVYLPMRKEVYQQVSSRIMNLLREYSEKIEIASIDEAYLDISDKVRDYREAYNLGLEIKNKILEKEKITVTVGISKNKVFAKIAADMAKPNGIKVIDDEEVKRLIRELDIADVPGIGNITAEKLKKLGINKLVDTLSIEFDKLKGMIGEAKAKYLISLARDEYNEPIRTRVRKSIGRIVTMKRNSRNLEEIKPYLFRAIEESYYKLDKRIPKAIHVVAVTEDLDIVSRGRTFPHGISKETAYSESVKLLQKILEEDERKIRRIGVRFSKFIEAIGLDKFFDT

Variants of B1 are the subject of this series. The conditions noted are these: Saccharolobus solfataricus (strain ATCC 35092 / DSM 1617 / JCM 11322 / P2); pH 7.5; Thermal; CD; Na3PO4; NaCl MgCl2 50000 5000; structure 2RDI; whole UniProt chain shown.

What is called Tm is the temperature at the midpoint of the melting transition.

On to E235A R240A, for which the Tm turned out to be 90.3 °C and the “unfolding enthalpy (calorimetric)” value was determined as 125 kcal/mol.
The like results for R240A were, in that order, 96.5 °C and 93 kcal/mol.
The like results for E100A K148A E235A R240A were, in that order, 90 °C and 163 kcal/mol.
For the variant K148A E235A R240A, the Tm was determined as 90.3 °C and the “unfolding enthalpy (calorimetric)” value is 172 kcal/mol.
The like results for E100A E235A R240A were, in that order, 88.3 °C and 193 kcal/mol.
As for E100A K148A, the Tm was 89.4 °C and the “unfolding enthalpy (calorimetric)” value came to 135 kcal/mol.
